Article PMC8196545 (Cell reports, 2021)
Changes are numbered by the printed parent chain.

Target: HIV-1 NL4-3 Env on infected cells (HIV-1 group M subtype B, NL4-3 (pNL4-3 …, strain))

B1: c11058 (antibody, V domains shown)
V domain 1: EVRLDQSGTEMRKPGTRVRLSCKVSGHTTSDFFVHWVQQTPQGGPQWMGLINVEDENVIYADIFQGRISIVADTSKKTVFLDLTDLTFEETALYFCTTHTLQKDTGDYVAAFDSWGRGTLLYVSS
V domain 2: QPVLTQPPSVSAVPGQKVIISCSGRTSNIGTNFVSWYQQFPGAAPKLLIYDDFNRPSGISDRFSASKSDTSATLAITALQPGDEAEYYCGAWDSGLNPAVFVFGSGTRVFVL
binding result: binds

B2: c10833 (antibody, V domains shown)
V domain 1: EVRLDQSGAEMRKPGTSVRLSCTVSGHTTNDFFIHWVKQDPQRGPLWMGLINVEDENVIYAEEFQGRISIVADSSKTTVFLDLSHLTFEDTALYLCTTHTLEKETGDYVAAFDSWGQGTFLSVSS
V domain 2: B1 V domain 2 with P2S, D52T, N54H, A91S
binding result: binds

B3: c2518 (antibody, V domains shown)
VH: QVRLHQWGEGLLRPSDTLTLSCSLSGNVFYNTFFNWVRQSPGRGLEWIAEVSFAGEWTFNPSLRSRVTTQVDGFTYRVSLFLKSMTAADAGVYYCASGGGSFDVDSWGPGIRVTVSS
VL: EIVLTQTPLSSPVSLGQSASISCRSSQSLRHNNGNTYLSWFQQRPGQPPRLLIRKISDRFSGVPNRFSGSGAGTDFTLRIDRVEPEDVGTYYCLQATQFPWTFGQGTTVDIK
binding result: binds

B4: c5275 (antibody, V domains shown)
VH: QGQLVESGGGVVQPGTSLRLSCKASGFSFSNHVMHWVRQAPGKGLEWVAAIWDDGSNQYYRDSVKGRFTISRDNSKNTLFLQMSSLTVQDTAIYFCARRMSAVGTIFAYFNYGMDVWGRGTTVIVSS
VL: EVVLTQSPGTLSLSPGERGTLSCRASQHLSDSSLAWYQQKPGQAPRLLIYAASRRATGIPDRFSGSGSGTDFTLTISRLDPDDFAVYYCQHYGNSPVITFGQGTRLDIK
binding result: binds

B5: c11422 (antibody, V domains shown)
VH: EARLVESGGGRVQPGGSLRLSCEASGFRFSSYSFNWVRQSPGKGLEWLAKISASPFGRSQINYAHSVEGRFIISRDNDGNSLRLQMNDLRGADTGVYYCARAPWQERNLDYNYAMDVWGQGTTVIVSS
VL: ELVLTQSPGTLSLSPGERATVSCRASQSLRRDSLAWYQQKPGHSPRLLIFAASNRVPGIPYRFSGSGSGTQFTLTIDKMEPEDFAVYYCQTYGSSPLYTFGQGTKLDIN
binding result: binds

B6: c1141 (antibody, V domains shown)
VH: QVRLHQWGEGLLRPSDTLSLTCSLSGNVFYETFFNWIRQSPGKGLEWIAEVSFAGDWNYNPSLKSRVTTYVDGFKYHASLHMRSMTAADAGVYYCAAGGGSFDVHSWGQGIRVTVSS
VL: EIVLTQTPLSSSVTLGQAASISCTSNHSLQHSNGNTYLSWFQQRPDQPPRLLIRKISNRGSGVPDRFSGSGSGTHFTLTIDRVEPEDVGTYYCVQATQFPWTFGQGTTVDIT
binding result: binds

B7: c1134 (antibody, V domains shown)
VH: B6 VH with H81Q, R83S
VL: B6 VL with T7A, D46G
binding result: binds

B8: c1174 (antibody, V domains shown)
VH: B6 VH with E31R, A54T, N58T, A78V, H81Q, R83S, A97S, H105D
VL: B6 VL with A18S, T24R, N26S, H27Q, D46G, G60F, G62E, H75D
binding result: binds

B9: c9497 (antibody, V domains shown)
VH: QVQLVQSGAEVKKPGSSVKVSCKASGGSFSDYGISWVRQAPGQGLEWMGGIIPGLETTKFAQGLQGRLTMTADESSTTAYMVLTRLRSQDTAVYYCATTGQQNDYYSSGTSYKLNYYFGMDVWGQGTTVTVSS
VL: QSVLTQPPSSSGTPGQRVTITCSGGSSNIETNSVNWYQQLPGAAPKTVISATHQRPSGVPDRFSASKSGASASLAISGLQSEDEADYYCAVWDDSLHAWVFGGGTKVTVL
binding result: binds

B10: c9488 (antibody, V domains shown)
VH: QVQLVQSGSEVKKPGASVKVSCKASDYTFPNFGISWLRQAPGQGLEWMGWIRGSDGETNYAQKFKDRVTLTTERSRGTAYMELRSLISDDTAVYYCARDLKWDCSKRGCPDYQWFDIWGQGTLVTVSS
VL: DVVMTQSPLSLPVTLGQPASISCISSHSLVYTDGNTYLAWFQQRPGQSPRRLIYTVSKRDSGVPDRFSGSGSGTDFTLKISRVEAEDVGIYFCMQGRHWPYTFGQGTTLEIK
binding result: binds

B11: c5338 (antibody, V domains shown)
VH: HVRLEQWGPGLLKPSETLSLSCVVHGESFDPYSWTWIRQSPKMGPQWLGEIRPFGETVYNPSLSGRLSLSRDNSKRLISLRLTSVSAADSAVYFCARGPVIYEVPYFWYRGLNVWGPGTTVVVST
VL: DVVVTQSPLSVSVTPGESATILCKSSHSLRHDNGMHYLDWYLQKPGQSPQLLIYLSSNRASGVPDRFIGSGSGTDFTLKISRVEAEDVGMYFCMQGRQDPRIFGRGTRLEIK
binding result: binds

B12: c24148 (antibody, V domains shown)
VH: QVEVQESGPGLVKPSETLSLTCSVSGGSITGYYWSWIRQAPGKGLEWIGFISPGGSARYNPSLKSRVTISKDASTNQVSLRLISVTASDTAVYFCVRDGAAGNNWGYNYYGMDVWGQGTTVTVSS
VL: DIQLTQSPSTLSASIGDRVTITCRASQSISVWLAWYQQKPGKAPNLLIYRASTLDSGVPSRFSGSGSGTEFTLTISSLQPDDLGTYYCQHYDTPSRTFGPGTKVEIT
binding result: binds

B13: c8395 (antibody, V domains shown)
VH: AVQFLQSGAEVKKPGESLKISCQDRGYGFNDYWIAWVRQMPGKGLEWMGLIYPDDSDTRYSPSFQGQVTILADKSINTAYLQWNSLKASDSAIYYCARLMVVDERSENTFDIWGQGTVVTVFS
VL: SSGLAQSPSLSVSPGQTATVTCSGDPLVNHFASWYQQQPGQSPILVIYQDNQRPSGIPERFSGSKTGNTATLTIGETQAADEADYFCQSWDITTAGMIFGGGTKLTVL
binding result: binds

B14: c24251 (antibody, V domains shown)
VH: QVQLQESGPGLVKPSETLSLTCTVSGASINSYYWSWIRQTPGKGLEWIGFISNAGTTKYNPSLQSRVTISRDTSKNQVSLHLTSVTAADTAVYHCARDGLPGSNWGYNYAGMDVWGQGTTVTVTS
VL: DIQMTQSPSTLSASVGDRVTITCRTSQPISVWLAWYQQKPGKAPKVLIYRASSLEDGVPSRFSGSGSGTEFTLTISSLQPDDFATYFCQHYNTFSRTFGQGTKVEIK
binding result: binds

B15: c29323 (antibody, V domains shown)
VH: QVQLQESGPGLVRPSETLSLTCVVSGDSITRNYWSWLRQPPGKTLEWIGFMYDSGTVNYNPSLQSRVSISVDTSNNQFFLRLTSVTAADTAVYYCARHPSRGSDYDSATGDTYYYYYGMDVWGPGTSVVVSS
VL: DIQLTQSPPSLSASVGDRIVISCRATRDIGTSLNWYQQKPGQSPKLLIVAASTLESGVPSRFSAAGSATHFTLTISALQHDDVATYFCQQYLSLPLTFSGGTRVDLR
binding result: binds

B16: c9674 (antibody, V domains shown)
VH: EVKLVESGGTLVKPGGSLRISCAASGFRFSSYSFNWVRQAPGKGPEWVAYISASPLGRSKVNYAHSVEGRFSVSRDNDAKSLHLQMSGLTRDDTAVYHCARAPWYEGNFNYNYAMDVWGQGTTVIVSS
VL: GVVLTQSPGTLSLSPGERVTVSCRASQSLSRDSLVWYQQKPGQPPRLLIYGASNRVPGIPDRFSGDGSGTQFTLTINRLEPEDFGVYYCQSYGHSPLYSFGQGTKLEIK
binding result: binds

B17: c11465 (antibody, V domains shown)
VH: EVKLVESGGTQVQPGGSLRISCVGSGFRFSSYSFNWVRQAPGKGPEWVAYISASPFGRSKVTYAHSVEGRFIVSRDNDANSLYLQMTGLTRDDTAVYHCARAPYYEGNFQYNYAMDVWGLGTTVIVSS
VL: B16 VL with V19A, S30T, A52T, D66G, N77S, G85A, H94L, E107D
binding result: binds

B18: c5237 (antibody, V domains shown)
VH: QVQLQESAPRLVKTSETLSLTCTVSGSHFYPYFYSWIRQSPGGKLQWIGRMYSTTGSMRTNPSLHTRVGMPLDHSRSQIGLTMSSMTAADTGIYYCVRDIMREFDSVDGSGGIYGGVDVWGRGTTVTVSS
VL: QFVLTQPPSVSGSPGKTVIISCTRSGGTFARNSVRWYLQRPGEIPTTVFFDGNRRASGIPDRFSASIGVSSTSASLTISGLTPEDEADYYCESSDGGHHVVFGGGTKVTVL
binding result: binds

B19: c13217 (antibody, V domains shown)
VH: QVQLVESGGGVVQPGKSLRLSCTASGFDVGHFTMHWVRQAPGKGLEWVGLTRTDGNTEEYADSVKGRFAISRDNSKNTLSLQLNNVRAEDTAVYYCAKERVPLTAYAFDYWGQGTLVTVSS
VL: DIQMTQSPSSLSASVGDRVTITCRSSERIRTYVNWYQQKPGQAPQLLIYAASTLQNGVPSRFSGSGSGTVFTLTVNSLQPADFATYSCQQSYSLPWTFGQGTRVEVN
binding result: binds

B20: c7488 (antibody, V domains shown)
VH: QVRLEQWGGGLLKPSETLSLTCAAWDDNFHRYHWTWVRQFPGGRLQWIGQCEPFGAIKSNPSLGGRAGLSLDDSLRRFILTLRSLNVADTGVYFCVRGPERFHQPHFYYQGLGLWGPGSPVIVSS
VL: DVELTQSPLSLSVNPGESVSLFCRSTESLRNANGHDYLDWYVQKPGQSPQILIFLGSGRASGLPDRITASGSGSAFTLRIDKVEADDVGVYYCMQSIQLPRTFGQGTRLEIK
binding result: binds

B21: c5392 (antibody, V domains shown)
VH: ELQLKESGPGLVKPSETLSLTCAVSGGPMCADWCFYYHWNWVRLSAEKGLEWMGRIHISGTAEYNPSFKGRATISLDISKNELSLTMTSLAAADTAVYFCARSGGNFHPTYFYMMDIWGRGTTVVVSS
VL: DIQMTQSPSTLYASLGETVTITCRASQNIKKWLAWYQMRPGRAPRLLIYMATYRHDADSARYIGSESGGEFTLTIKSLRPDDFGTFYCQQYGAQPWTFGQGTRLEVK
binding result: binds
